From patent US20140120109A1 (Regeneron, published 2014)

T1: human DR3, full-length, expressed on HEK293 NFkB-luciferase reporter cells (human, UniProt Q93038 25-417)
T1 sequence: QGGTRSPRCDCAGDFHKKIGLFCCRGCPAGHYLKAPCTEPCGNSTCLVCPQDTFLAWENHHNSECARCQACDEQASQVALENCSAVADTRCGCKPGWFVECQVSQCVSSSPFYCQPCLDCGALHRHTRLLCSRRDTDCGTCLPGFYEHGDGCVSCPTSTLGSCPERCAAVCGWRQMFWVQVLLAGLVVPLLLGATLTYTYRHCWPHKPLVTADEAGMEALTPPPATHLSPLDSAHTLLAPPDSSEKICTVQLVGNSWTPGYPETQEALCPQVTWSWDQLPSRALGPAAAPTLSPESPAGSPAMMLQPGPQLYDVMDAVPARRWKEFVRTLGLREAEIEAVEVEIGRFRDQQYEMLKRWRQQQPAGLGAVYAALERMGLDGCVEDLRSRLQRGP

T2: cynomolgus monkey TL1A, soluble, E. coli-expressed, residues 72-251 of SEQ ID NO:248 (cynomolgus monkey (Macaca fascicularis), UniProt O95150 72-251 (human entry))
T2 construct: with or without N-terminal Met; also called MfTL1A (E. Coli)
T2 chain: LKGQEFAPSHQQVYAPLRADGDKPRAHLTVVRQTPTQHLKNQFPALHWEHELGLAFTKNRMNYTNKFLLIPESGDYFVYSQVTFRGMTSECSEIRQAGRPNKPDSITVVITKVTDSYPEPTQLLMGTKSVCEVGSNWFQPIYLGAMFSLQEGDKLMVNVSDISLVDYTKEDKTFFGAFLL

T3: cynomolgus monkey TL1A, soluble, CHO-expressed, residues 72-251 of SEQ ID NO:248 with N-terminal His6-tag (cynomolgus monkey (Macaca fascicularis), UniProt O95150 72-251 (human entry))
T3 construct: also called MfTL1A; MfTL1A (CHO)
T3 chain: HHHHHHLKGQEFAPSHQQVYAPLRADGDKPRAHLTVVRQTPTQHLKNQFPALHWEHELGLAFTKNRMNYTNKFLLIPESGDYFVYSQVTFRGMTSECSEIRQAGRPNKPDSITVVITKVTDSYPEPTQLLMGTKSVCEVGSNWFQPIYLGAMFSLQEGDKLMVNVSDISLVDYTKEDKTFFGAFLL

T4: Fhm, hTL1A(Q167R), soluble, CHO-expressed, residues 72-251 of SEQ ID NO:246 (human, UniProt O95150 72-251)
T4 construct: also called Fhm (CHO); FHM (CHO)
T4 chain: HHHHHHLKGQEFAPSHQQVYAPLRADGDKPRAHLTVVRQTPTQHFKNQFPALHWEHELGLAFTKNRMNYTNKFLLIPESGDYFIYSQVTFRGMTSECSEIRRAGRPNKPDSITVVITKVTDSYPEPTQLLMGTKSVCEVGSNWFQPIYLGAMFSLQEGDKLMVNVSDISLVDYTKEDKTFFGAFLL

T5: human TL1A, soluble, CHO-expressed, residues 72-251 of SEQ ID NO:244 with N-terminal His6-tag (human, UniProt O95150 72-251)
T5 construct: also called hTL1A; hTL1A (CHO)
T5 sequence: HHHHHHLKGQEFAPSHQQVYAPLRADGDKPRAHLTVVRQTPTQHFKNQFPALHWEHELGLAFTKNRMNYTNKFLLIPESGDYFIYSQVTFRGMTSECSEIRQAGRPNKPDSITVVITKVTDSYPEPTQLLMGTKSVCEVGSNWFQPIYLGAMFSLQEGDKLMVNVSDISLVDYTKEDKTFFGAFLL

T6: mouse TL1A, soluble, E. coli-expressed, residues 76-252 of SEQ ID NO:250 (mouse, UniProt Q5UBV8 76-252)
T6 construct: with or without N-terminal Met; also called mTL1A (E. Coli)
T6 sequence: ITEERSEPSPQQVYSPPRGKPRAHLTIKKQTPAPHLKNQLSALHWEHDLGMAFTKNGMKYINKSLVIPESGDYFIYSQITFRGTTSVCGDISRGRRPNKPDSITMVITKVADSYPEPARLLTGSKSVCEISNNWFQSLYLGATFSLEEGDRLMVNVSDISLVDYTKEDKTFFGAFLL

T7: Fhm, hTL1A(Q167R), soluble, E. coli-expressed, residues 72-251 of SEQ ID NO:246 (human, UniProt O95150 72-251)
T7 construct: with or without N-terminal Met
T7 chain: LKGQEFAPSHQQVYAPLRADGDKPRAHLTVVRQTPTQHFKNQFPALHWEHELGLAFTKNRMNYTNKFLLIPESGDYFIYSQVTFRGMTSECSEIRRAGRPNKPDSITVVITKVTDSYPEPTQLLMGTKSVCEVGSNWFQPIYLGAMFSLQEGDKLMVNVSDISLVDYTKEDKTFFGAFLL


How the values were obtained:
[1] = target: T1, human DR3, full-length, expressed on …; assay: cell-based or functional assay
[2] = target: T2, cynomolgus monkey TL1A, soluble, E. …; assay: SPR 37C, mAb captured
Procedure: (§1) Measurements were conducted on a T100 BIACORE™ instrument. […] Kinetic association (kₐ) and dissociation (kd) rate constants were determined by fitting the data to a 1:1 binding model using BIAevaluation 4.1 curve fitting software (BIAcore Life Sciences). Molar concentrations of TL1A/Fhm used in the data fitting assumed a monomeric state for TL1A in solution. Binding dissociation equilibrium constants (KD) and dissociative half-lives (t_{1/2}) were calculated from the kinetic rate constants as: KD (M)=kd/kₐ; and t_{1/2} (min)=[In2/(60*kd)].

[3] = target: T3, cynomolgus monkey TL1A, soluble, …; assay: ELISA, blocks MfTL1A (500 pM) binding hDR3-Fc
Procedure: (§2) The ability of antibodies to block human TL1A binding to its cognate receptors, the DR3 and DcR3 receptors, was measured using a competition sandwich ELISA. In addition, blocking of a human TL1A variant FHM (human TL1A Q167R) and the cynomolgus monkey (Macaca fascicularis) TL1A (MfTL1A) protein binding to the human DR3 or DcR3 receptors was measured in the same manner. Constant amounts of biotinylated human TL1A or FHM (both expressed with a 6-His tag in CHO cells) or biotinylated MfTL1A (expressed in CHO cells) were separately titrated with varying amounts of antibodies. The antibody-protein complexes were incubated in solution (1 hr, 25° C.) and then transferred to microtiter plates coated with human DR3 (hDR3) or human DcR3 (hDcR3) expressed as human IgG1 Fc fusion proteins. After one hour at 25° C. the wells were washed, and bound human or monkey TL1A was detected with streptavidin conjugated with horseradish peroxidase (HRP). Wells were developed with a TMB solution to produce a colorimetric reaction and quenched with aqueous sulfuric acid before reading absorbance at 450 nm on a Perkin-Elmer Victor X5 plate reader. A sigmoidal dose-response curve was fit to the data using the Prism™ data analysis package. […] Both fully human anti-hTL1A mAbs and comparator antibodies, i.e., control mAb1 (an anti-hTL1A antibody with heavy and light chain variable domains having the amino acid sequences corresponding to SEQ ID NOS:21 and 27, respectively, of US 2009/0280116) and control mAb3 (an anti-hTL1A antibody with heavy and light chain variable domains having the amino acid sequences corresponding to SEQ ID NOS:57 and 48, respectively, of US 2009/0280116), were included in the study. NB: No binding under the conditions tested; NT: Not tested. Concentrations of biotinylated soluble ligands: (1) 150 pM; (2) 500 pM; (3) 10 pM; and (4) 50 pM.

[4] = target: T4, Fhm, hTL1A(Q167R), soluble, …; assay: ELISA, blocks FHM (10 pM) binding hDcR3-Fc; blocking of FHM binding to DcR3
Procedure: as §2

[5] = target: T5, human TL1A, soluble, CHO-expressed, …; assay: ELISA, blocks hTL1A (150 pM) binding hDR3-Fc
Procedure: as §2

[6] = target: T3, cynomolgus monkey TL1A, soluble, …; assay: ELISA, blocks MfTL1A (50 pM) binding hDcR3-Fc
Procedure: as §2

[7] = target: T6, mouse TL1A, soluble, E. coli-expressed, …; assay: SPR 25C, steady state
Procedure: as §1, with “Binding dissociation equilibrium constants (KD) and dissociative half-lives (t_{1/2}) were calculated from the kinetic rate constants as: KD (M)=kd/kₐ; and t_{1/2} (min)=[In2/(60*kd)].” left out

[8] = target: T5, human TL1A, soluble, CHO-expressed, …; assay: ELISA, blocks hTL1A (10 pM) binding hDcR3-Fc
Procedure: as §2

[9] = target: T2, cynomolgus monkey TL1A, soluble, E. …; assay: SPR 25C, mAb captured
Procedure: as §1

[10] = target: T7, Fhm, hTL1A(Q167R), soluble, E. …; assay: SPR 25C, mAb captured
Procedure: as §1

[11] = target: T4, Fhm, hTL1A(Q167R), soluble, …; assay: ELISA, blocks FHM (150 pM) binding hDR3-Fc; blocking of FHM binding to hDR3
Procedure: as §2

Binder	EC50 (cells), NFkB-luciferase reporter [1] [cells]	Kd [2] [nM]	t1/2 [2] [min]	IC50 [3] [nM]	IC50 [4] [nM]	IC50 [5] [nM]	IC50 [6] [nM]	binding result [7]	IC50 [8] [nM]	Kd [9] [nM]	t1/2 [9] [min]	binding result [10]	IC50 [11] [nM]	Kd [10] [nM]	t1/2 [10] [min]
full length human TL1A expressed on HEK293 cells (ligand) MAEDLGLSFGETASVEMLPEHGSCRPKARSSSARWALTCCLVLLPFLAGLTTYLLVSQLRAQGEACVQFQALKGQEFAPSHQQVYAPLRADGDKPRAHLTVVRQTPTQHFKNQFPALHWEHELGLAFTKNRMNYTNKFLLIPESGDYFIYSQVTFRGMTSECSEIRQAGRPNKPDSITVVITKVTDSYPEPTQLLMGTKSVCEVGSNWFQPIYLGAMFSLQEGDKLMVNVSDISLVDYTKEDKTFFGAFLL	23500	–	–	–	–	–	–	–	–	–	–	–	–	–	–
H2M1681N (antibody, V domains shown) VH: EVQLLESGGGLVQPGKSLRLSCAVSGFTFSTYGMNWVRQAPGKGLEWVSSISGTGRTTYHADSVQGRFTVSRDNSKNILYLQMNSLRADDTAVYFCTKERGDYYYGVFDYWGQGTLVTVSS VL: DIQMTQSPSTLSASVGDRVTITCRASQTISSWLAWYQQTPEKAPKLLIYAASNLQSGVPSRFSGSGSGTEFTLTISSLQPDDFATYYCQQYHRSWTFGQGTKVEIT	–	1.5	14	0.061	0.234	0.037	0.149	no binding (tested: up to 100 nM)	0.013	0.546	54	no binding (tested: up to 100 nM)	–	–	–
H2M1804N (antibody, V domains shown, chimeric hybridoma antibody: human variable regions, mouse constant regions (mouse Fc)) VH: QVQLHQWGAGLLKPSETLSLTCAVSGVSFSDYHWAWIRQSPGKGLEWIGDINHRGRTNYNPSLKSRVTISLDTSGNPFSLKLTSVTAADTAVYYCARDFPNWVFDSWGQGILVTVSS VL: EIVLSQSPGTLSLSPGERATLSCRASQSVSSSFLAWYQQYPGQAPRLLIYGASRRATGIPDRFRGSGSGTDFTLTISRLEPEDFAVYYCQQYGSSPLTFGGGTKVENK	–	0.218	118	0.081	–	0.046	0.009	no binding (tested: up to 100 nM)	0.12	0.176	172	–	0.102	0.192	108

Now from value to binder:

EC50 (cells), NFkB-luciferase reporter [1] [cells]	Kd [2] [nM]	t1/2 [2] [min]	IC50 [3] [nM]	IC50 [4] [nM]	IC50 [5] [nM]	IC50 [6] [nM]	binding result [7]	IC50 [8] [nM]	Kd [9] [nM]	t1/2 [9] [min]	binding result [10]	IC50 [11] [nM]	Kd [10] [nM]	t1/2 [10] [min]	Binder
8460	–	–	–	–	–	–	–	–	–	–	–	–	–	–	full-length cynomolgus monkey TL1A expressed on HEK293 cells (ligand) MAEDLGLSFGETASVEMLPEHGSCRPKARSSSACWALTCCLVLLPFLAGLTTYLLVSQLRAQGEACVQLQDLKGQEFAPSHQQVYAPLRADGDKPRAHLTVVRQTPTQHLKNQFPALHWEHELGLAFTKNRMNYTNKFLLIPESGDYFVYSQVTFRGMTSECSEIRQAGRPNKPDSITVVITKVTDSYPEPTQLLMGTKSVCEVGSNWFQPIYLGAMFSLQEGDKLMVNVSDISLVDYTKEDKTFFGAFLL
47900	–	–	–	–	–	–	–	–	–	–	–	–	–	–	full-length Fhm, human TL1A(Q167R), expressed on HEK293 cells (ligand) MAEDLGLSFGETASVEMLPEHGSCRPKARSSSARWALTCCLVLLPFLAGLTTYLLVSQLRAQGEACVQFQALKGQEFAPSHQQVYAPLRADGDKPRAHLTVVRQTPTQHFKNQFPALHWEHELGLAFTKNRMNYTNKFLLIPESGDYFIYSQVTFRGMTSECSEIRRAGRPNKPDSITVVITKVTDSYPEPTQLLMGTKSVCEVGSNWFQPIYLGAMFSLQEGDKLMVNVSDISLVDYTKEDKTFFGAFLL
–	0.439	36	0.013	2.24	0.006	1.14	no binding (tested: up to 100 nM)	0.012	0.345	67	no binding (tested: up to 100 nM)	–	–	–	H2M1805N (antibody, V domains shown, chimeric hybridoma antibody: human variable regions, mouse constant regions (mouse Fc)) VH: QVQLQQWGAGLLKPSETLSLTCAVYGGSFTGFYWSWIRQPPGKGLEWIGEINHRGNTNYNPSLKSRVTMSVDTSKNQFSLNMISVTAADTAMYFCASPFYDFWSGSDYWGQGTLVTVSS VL: DIMLTQTPLTSPVTLGQPASISCKSSQSLVHSDGNTYLSWLQQRPGQPPRLLFYKISNRFSGVPDRFSGSGAGTDFTLKISRVEAEDVGVYYCMQATQFPLTFGGGTKVEIK
